Among the data in the RNAGym collection of RNA variant scans (doi:10.7554/elife.80360) are self-cleavage values, retold here.

Sequences and labels used below:
B1: Twister Ribozyme (parent)
chain: AACACUGCCAAUGCCGGUCCCAAGCCCGGAUAAAAGUGGAGGGGGCGG

Variants of B1 are the subject of this data set. Nature of the data set: self-cleavage, relative activity (ratio to wild type); higher = more cleavage; co-transcriptional.
As to A10U G17U, the self-cleavage is 0.302. The value for G24U G43U was 0.0757.

As for G44C G45C, the self-cleavage worked out at 0.54. With C19U C21G, the self-cleavage was found to be 0.107. The value for G7C G36U was 0.0725; that for C14U C19U was 1.14. The figure for C5U C20A is 0.105. As to A22U G24C, the self-cleavage was found to be 0.0864. The value for G36U G42A was 0.123; that for U31G G42C was 0.699. On to G7C U31C, for which the self-cleavage worked out at 0.0704. The figure for G7C U31A is 0.0718; for A30C A33U it is 0.766; for U31G G48U it is 0.938.

In the case of C19U G43U, the self-cleavage was found to be 1.02. For A10U G48U, the self-cleavage amounted to 0.933. Regarding C5A C25A, the self-cleavage is 0.068. As to A30G C46G, the self-cleavage was 0.964. The value for A30G C46U was 0.779; that for C9G G36A was 0.204; that for C19A G47A was 0.139. As for C8U G42A, the self-cleavage was 0.127. On to G44A G48U, for which the self-cleavage was found to be 1.08.

For A10C C15U, the self-cleavage worked out at 0.942. The figure for G29U U31G is 0.92. The figure for A1G C25G is 0.205; for C8A U31A it is 0.433.

As for U6G C25G, the self-cleavage was 0.0804.

With A22C A34C, the self-cleavage was found to be 0.169. The value for G17C G45U was 0.107; that for C3U U12G was 0.391.

Take C20A G28A: the self-cleavage stood at 0.0974. C20A G28C: the self-cleavage stood at 0.125. As for A32C A40C, the self-cleavage is 0.159. As to C9A U37A, the self-cleavage was 0.233.

Regarding U18A G41A, the self-cleavage came to 0.101. The value for C21G G28U was 0.0788; that for G38C was 0.951; that for U12G G47C was 0.528.

With C5A A34C, the self-cleavage was 0.119. Take U6C U12A: the self-cleavage came out at 0.663. The value for C8G A23C was 0.0689. On to C25G U37A, for which the self-cleavage was determined as 0.166. Consider A10C A35C, for which the self-cleavage was found to be 1.08. As for C15U A22C, the self-cleavage is 0.932. Turning to U37C G48A, the self-cleavage worked out at 0.639.

For C25A C27G, the self-cleavage was 0.104. As for G16U A33G, the self-cleavage was determined as 0.597. With A2C A22C, the self-cleavage is 0.0812. The value for C25G C27A was 0.105; that for C8U G45C was 0.141.

Consider G24C G36A, for which the self-cleavage came to 0.115. Consider C14A C21A, for which the self-cleavage turned out to be 0.128. As to A10C G45C, the self-cleavage was found to be 0.661. The figure for A4C G39A is 0.101; for C9A G36A it is 0.178. Take A22C G24U: the self-cleavage is 0.0876. The figure for C3G C46A is 0.624; for G24A A30C it is 0.0875; for G7A G48C it is 0.457. The figure for U18A U37C is 0.0568. The value for A2U A30U was 0.713; that for C5U G39C was 0.171. Take A33U G45A: the self-cleavage was found to be 0.884.

As for U6A C14U, the self-cleavage came to 0.795. The value for C8G U18A was 0.0816; that for C15G G43U was 0.104; that for C15A U31C was 0.718. The value for G17U A30U was 0.485; that for G7U A23C was 0.0594; that for C9U U31A was 0.667. With C8A G42A, the self-cleavage came to 0.141. The figure for A2U C14A is 0.531; for A1G G45A it is 0.32. The value for G13A A35G was 0.203.

Regarding C5A G44C, the self-cleavage came out at 0.556.

Turning to A2G C46A, the self-cleavage was determined as 0.2.

C25G A35C: the self-cleavage stood at 0.182. The figure for C9U A35U is 0.767; for A2U C25A it is 0.0735. For A40G G48C, the self-cleavage was found to be 0.14. The value for G24U G41U was 0.0892; that for G36C G38A was 0.459; that for G13A G36U was 0.139.

With C15G G47C, the self-cleavage was 0.0669.

Turning to A2G C15A, the self-cleavage is 0.136. The figure for C5G C19U is 0.504; for U18C A35U it is 0.665; for C3A A34U it is 0.252. As for C9U A11U, the self-cleavage is 0.84. The figure for C19U G28C is 0.908; for U6C A32U it is 0.488; for C5G G41C it is 0.114.

Regarding U12G U31G, the self-cleavage is 0.834. G7U G47A: the self-cleavage was found to be 0.0641.

As for C9U G36C, the self-cleavage is 0.12. The figure for U12A U31G is 0.961. The value for U12A U31A was 0.679; that for A11G A33G was 0.84; that for A23C G28C was 0.0761. The figure for A4U G43C is 0.0736; for A23U G45C it is 0.141; for G7C U18G it is 0.0952.

For A11G G36U, the self-cleavage worked out at 0.431. Regarding G13A G42U, the self-cleavage was determined as 0.191. The figure for C14A G42C is 0.363. The figure for U37G G47A is 0.673; for G36C U37G it is 0.297. For A30G A32C, the self-cleavage is 0.877.

For the variant A40U G44A, the self-cleavage was 0.155. The figure for U18C A23C is 0.506; for C8U U12G it is 0.429; for C5A A22C it is 0.601. Regarding A10G G39C, the self-cleavage was 0.119. With U12C C46G, the self-cleavage stood at 0.705. A33G G48U: the self-cleavage worked out at 0.903.

On to C3G G13C, for which the self-cleavage came out at 0.124. Turning to A10U G41U, the self-cleavage stood at 0.61. In the case of C3G G17A, the self-cleavage came to 0.213. The value for A11U G48A was 0.951; that for G28U A33C was 0.838; that for U6G A11C was 0.173. The figure for C5G A40G is 0.182; for G13U C26A it is 0.129. For the variant A10C A23G, the self-cleavage came out at 0.453. The figure for G7C U37G is 0.062; for A30U G47A it is 0.927.

As to C5U A40G, the self-cleavage stood at 0.133. U18A G45U: the self-cleavage was 0.272. The value for G38A G41C was 0.157; that for C9A A23U was 0.066. The value for G17C A33C was 0.0741; that for G13A C19U was 0.284; that for C8A A30U was 0.284. C26G A30G: the self-cleavage stood at 0.214. The value for G39A G42C was 0.12; that for G16A A23U was 0.228; that for A1G A22C was 0.325. The value for C26U G29U was 0.204; that for A2C C9U was 0.0433; that for A11C G38U was 1.03.

For the variant C9G G39A, the self-cleavage turned out to be 0.137. Consider U18A G47A, for which the self-cleavage is 0.201. The figure for G42C G48C is 0.606; for U18C G43U it is 0.111; for U6C C8G it is 0.0656.

G41A G48C: the self-cleavage was 0.535. On to C27G G44U, for which the self-cleavage was 0.0884. For A10U C46A, the self-cleavage stood at 0.913. Regarding U37A G48A, the self-cleavage is 0.797.

Consider G28A A33G, for which the self-cleavage turned out to be 0.781. For the variant C21G C46U, the self-cleavage came to 0.0875.

As for G13A G45A, the self-cleavage is 0.724. Turning to U6C G45A, the self-cleavage worked out at 0.6. The value for A23U G47U was 0.163; that for G16A G28U was 0.607. The value for C26G G47U was 0.116. Regarding C26G G47A, the self-cleavage was 0.177. The value for C19U G45C was 0.38; that for U18A G39C was 0.102. The figure for A40U G41A is 0.142. The figure for C8A G16A is 0.153; for C8U A32C it is 0.733; for A11C G17A it is 0.134.

On to U31C A35C, for which the self-cleavage worked out at 1.03. Regarding A10G C25A, the self-cleavage turned out to be 0.139. The value for G36A G41C was 0.133.
